# Experimental data: patent publication US20240018502A1
# Positions count from the first letter of the chain named. Numbers in names are those of the source.
# B1: MTSP-1 protease domain I41S/F99L/C122S/G151N/Q175M/Q192G/D217V (enzyme)
# chain: VVGGTDADEGEWPWQVSLHALGQGHSCGASLISPNWLVSAAHCYIDDRGFRYSDPTQWTAFLGLHDQSQRSAPGVQERRLKRIISHPFFNDFTLDYDIALLELEKPAEYSSMVRPISLPDASHVFPAGKAIWVTGWGHTQYGGTNALILQKGEIRVINQTTCENLLPQMITPRMMCVGFLSGGVDSCGGDSGGPLSSVEADGRIFQAGVVSWGVGCAQRNKPGVYTRLPLFRDWIKENTGV
# B2: MTSP-1 I41T/F97W/F99L/C122S/G151N/Q175M/Q192G/D217L (enzyme)
# chain: B1 chain with S26T, F92W, V214L
# B3: MTSP-1 H40R/I41H/Y60gF/F97D/F99L/C122S/Q192G/D217R/K224A (enzyme)
# chain: B1 chain with H25R, S26H, Y52F, F92D, N145G, M169Q, V214R, K221A
# B4: MTSP-1 H40R/I41H/F97D/F99L/C122S/Q175M/Q192G/D217V/K224Y (enzyme)
# chain: B1 chain with H25R, S26H, F92D, N145G, K221Y
# B5: MTSP-1 protease domain I41S/F97L/F99L/C122S/G151N/Q192G/D217V (enzyme)
# chain: B1 chain with F92L, M169Q
# B6: MTSP-1 C122S/G193A (enzyme)
# chain: B1 chain with S26I, L94F, N145G, M169Q, G188Q, G189A, V214D
# B7: MTSP-1 protease domain I41G/F97R/F99L/C122S/G151N/Q175L/Q192S/D217V (enzyme)
# chain: B1 chain with S26G, F92R, M169L, G188S
# B8: MTSP-1 protease domain I41D/F97T/F99M/C122S/Q192V/D217M (enzyme)
# chain: B1 chain with S26D, F92T, L94M, N145G, M169Q, G188V, V214M
# B9: MTSP-1 I41G/F97I/F99L/C122S/G151L/Q175M/Q192S/D217V (enzyme)
# chain: B1 chain with S26G, F92I, N145L, G188S
# B10: MTSP-1 H40R/I41H/F97D/F99L/C122S/Q175K/Q192G/D217I/K224H (enzyme)
# chain: B1 chain with H25R, S26H, F92D, N145G, M169K, V214I, K221H
# B11: MTSP-1 H40R/I41H/F97D/F99L/C122S/Q175M/Q192G/D217S (enzyme)
# chain: B1 chain with H25R, S26H, F92D, N145G, V214S
# B12: MTSP-1 protease domain I41T/F97L/F99L/C122S/G151N/Q175S/Q192S/D217W (enzyme)
# chain: B1 chain with S26T, F92L, M169S, G188S, V214W
# B13: MTSP-1 I41G/F97S/F99L/C122S/G151N/Q175L/Q192G/D217I (enzyme)
# chain: B1 chain with S26G, F92S, M169L, V214I
# B14: MTSP-1 H40R/I41H/F97D/C122S/G151N (enzyme)
# chain: B1 chain with H25R, S26H, F92D, L94F, M169Q, G188Q, V214D
# B15: MTSP-1 H40R/I41H/F97D/F99L/C122S/Q175L/Q192G/D217K/K224A (enzyme)
# chain: B1 chain with H25R, S26H, F92D, N145G, M169L, V214K, K221A
# B16: MTSP-1 H40R/I41H/C122S/G151N (enzyme)
# chain: B1 chain with H25R, S26H, L94F, M169Q, G188Q, V214D
# B17: MTSP-1 F97D/F99L/C122S/Q192G (enzyme)
# chain: B1 chain with S26I, F92D, N145G, M169Q, V214D
# B18: MTSP-1 C122S/G193E (enzyme)
# chain: B1 chain with S26I, L94F, N145G, M169Q, G188Q, G189E, V214D
# B19: MTSP-1 protease domain I41S/F97S/F99L/C122S/G151N/Q175L/Q192A/D217L (enzyme)
# chain: B1 chain with F92S, M169L, G188A, V214L
# B20: MTSP-1 H40R/I41H/F97E/C122S (enzyme)
# chain: B1 chain with H25R, S26H, F92E, L94F, N145G, M169Q, G188Q, V214D
# B21: MTSP-1 F97E/F99L/C122S/D217I/K224N (enzyme)
# chain: B1 chain with S26I, F92E, N145G, M169Q, G188Q, V214I, K221N
# B22: MTSP-1 I41G/F97L/F99L/C122S/Q175A/Q192T/D217V (enzyme)
# chain: B1 chain with S26G, F92L, N145G, M169A, G188T
# B23: MTSP-1 C122S/G151N/G193A (enzyme)
# chain: B1 chain with S26I, L94F, M169Q, G188Q, G189A, V214D
# B24: MTSP-1 H40R/I41H/F97D/F99L/Q192G (enzyme)
# chain: B1 chain with H25R, S26H, F92D, S117C, N145G, M169Q, V214D
# B25: MTSP-1 H40R/I41H/Y60gF/F97D/F99L/C122S/Q175M/Q192G/D217W/K224R (enzyme)
# chain: B1 chain with H25R, S26H, Y52F, F92D, N145G, V214W, K221R
# B26: MTSP-1 I41G/F97V/F99L/C122S/G151Q/Q175M/Q192A/D217L (enzyme)
# chain: B1 chain with S26G, F92V, N145Q, G188A, V214L
# B27: MTSP-1 H40R/I41H/Y60gH/F97D/F99L/C122S/G151N/Q175A/Q192H/D217I/K224R (enzyme)
# chain: B1 chain with H25R, S26H, Y52H, F92D, M169A, G188H, V214I, K221R
# B28: MTSP-1 H40R/I41H/F97D/F99L/C122S/Q192G (enzyme)
# chain: B1 chain with H25R, S26H, F92D, N145G, M169Q, V214D
# B29: MTSP-1 H40R/I41H/Y60gF/F97D/F99L/C122S/Q192G/D217M/K224R (enzyme)
# chain: B1 chain with H25R, S26H, Y52F, F92D, N145G, M169Q, V214M, K221R
# B30: MTSP-1 protease domain I41S/D60bY/ins97aV/A112V/C122S/Q192G/Q209L (enzyme)
# chain: VVGGTDADEGEWPWQVSLHALGQGHSCGASLISPNWLVSAAHCYIDYRGFRYSDPTQWTAFLGLHDQSQRSAPGVQERRLKRIISHPFFNDFVTFDYDIALLELEKPVEYSSMVRPISLPDASHVFPAGKAIWVTGWGHTQYGGTGALILQKGEIRVINQTTCENLLPQQITPRMMCVGFLSGGVDSCGGDSGGPLSSVEADGRIFLAGVVSWGDGCAQRNKPGVYTRLPLFRDWIKENTGV
# B31: MTSP-1 protease domain I41S/Y59F/F97Y/ins97aV/C122S/Q192G (enzyme)
# chain: B30 chain with Y44F, Y47D, F92Y, V108A, L207Q
# B32: MTSP-1 D96_F97delinsWYY/T98P/F99L/C122S (enzyme)
# chain: B30 chain with S26I, Y47D, D91W, F92Y, V93Y, T94P, F95L, V108A, G189Q, L207Q
# B33: MTSP-1 Q38H/I41S/D96K/F97G/ins97aV/T98P/F99L/C122S/Q175L/Q192D (enzyme)
# chain: B30 chain with Q23H, Y47D, D91K, F92G, T94P, F95L, V108A, Q170L, G189D, L207Q
# B34: MTSP-1 protease domain A35T/I41S/Y59F/ins97aV/C122S/Y146F/V183A/Q192G/R235H (enzyme)
# chain: B30 chain with A20T, Y44F, Y47D, V108A, Y142F, V178A, L207Q, R233H
# B35: MTSP-1 protease domain I41S/ins97aV/C122S/N164D/Q192G/R235H (enzyme)
# chain: B30 chain with Y47D, V108A, N159D, L207Q, R233H
# B36: MTSP-1 protease domain I41S/D96K/F97G/ins97aV/T98P/F99L/C122S/Q175H/Q192D (enzyme)
# chain: B30 chain with Y47D, D91K, F92G, T94P, F95L, V108A, Q170H, G189D, L207Q
# B37: MTSP-1 I41S/D96K/F97G/ins97aV/T98P/F99L/C122S/Q175L/Q192D (enzyme)
# chain: B30 chain with Y47D, D91K, F92G, T94P, F95L, V108A, Q170L, G189D, L207Q
# B38: MTSP-1 Q38H/I41S/D96K/F97G/ins97aV/T98P/F99L/C122S/Q192D (enzyme)
# chain: B30 chain with Q23H, Y47D, D91K, F92G, T94P, F95L, V108A, G189D, L207Q
# B39: MTSP-1 protease domain I41S/D96K/F97G/ins97aV/T98P/F99L/C122S/Q192V (enzyme)
# chain: B30 chain with Y47D, D91K, F92G, T94P, F95L, V108A, G189V, L207Q
# B40: MTSP-1 F97T/ins97aE/T98G/F99L/C122S/Q175L/Q192E (enzyme)
# chain: B30 chain with S26I, Y47D, F92T, V93E, T94G, F95L, V108A, Q170L, G189E, L207Q
# B41: MTSP-1 protease domain I41S/Y59F/ins97aV/C122S/Q192G/N223D (enzyme)
# chain: B30 chain with Y44F, Y47D, V108A, L207Q, N221D
# B42: MTSP-1 protease domain I41S/ins97aV/C122S/N164D/Q192G/R235L (enzyme)
# chain: B30 chain with Y47D, V108A, N159D, L207Q, R233L
# B43: MTSP-1 Q38H/I41S/D60bT/F60eS/Y60gW/D96K/F97G/ins97aV/T98P/F99L/C122S/G151H/Q192D (enzyme)
# chain: VVGGTDADEGEWPWQVSLHALGHGHSCGASLISPNWLVSAAHCYIDTRGSRWSDPTQWTAFLGLHDQSQRSAPGVQERRLKRIISHPFFNKGVPLDYDIALLELEKPAEYSSMVRPISLPDASHVFPAGKAIWVTGWGHTQYGGTHALILQKGEIRVINQTTCENLLPQQITPRMMCVGFLSGGVDSCDGDSGGPLSSVEADGRIFQAGVVSWGDGCAQRNKPGVYTRLPLFRDWIKENTGV
# Molecular target: plasma purified human complement protein C3 (human) (UniProt P01024)
# Experiment: cell-based or functional assay
# plasma purified human complement protein C3 (human), sequence (P01024 23-667, chain 1 of 2): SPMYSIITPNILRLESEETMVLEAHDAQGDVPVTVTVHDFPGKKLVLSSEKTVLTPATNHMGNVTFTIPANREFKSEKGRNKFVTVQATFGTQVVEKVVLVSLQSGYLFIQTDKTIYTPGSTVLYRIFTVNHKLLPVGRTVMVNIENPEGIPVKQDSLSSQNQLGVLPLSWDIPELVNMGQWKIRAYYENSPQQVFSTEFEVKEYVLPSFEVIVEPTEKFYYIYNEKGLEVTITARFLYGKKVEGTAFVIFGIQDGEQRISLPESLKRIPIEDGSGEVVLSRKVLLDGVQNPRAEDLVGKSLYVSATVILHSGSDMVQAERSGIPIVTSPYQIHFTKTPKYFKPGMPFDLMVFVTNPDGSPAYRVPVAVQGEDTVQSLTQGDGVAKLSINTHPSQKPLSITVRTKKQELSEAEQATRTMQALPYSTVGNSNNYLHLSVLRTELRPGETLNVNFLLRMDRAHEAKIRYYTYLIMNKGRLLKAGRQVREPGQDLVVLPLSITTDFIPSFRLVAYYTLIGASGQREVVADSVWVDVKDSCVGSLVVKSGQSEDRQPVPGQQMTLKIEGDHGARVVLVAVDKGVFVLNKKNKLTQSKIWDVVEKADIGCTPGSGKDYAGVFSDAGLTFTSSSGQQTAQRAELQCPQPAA
# plasma purified human complement protein C3 (human), sequence (P01024 672-1663, chain 2 of 2): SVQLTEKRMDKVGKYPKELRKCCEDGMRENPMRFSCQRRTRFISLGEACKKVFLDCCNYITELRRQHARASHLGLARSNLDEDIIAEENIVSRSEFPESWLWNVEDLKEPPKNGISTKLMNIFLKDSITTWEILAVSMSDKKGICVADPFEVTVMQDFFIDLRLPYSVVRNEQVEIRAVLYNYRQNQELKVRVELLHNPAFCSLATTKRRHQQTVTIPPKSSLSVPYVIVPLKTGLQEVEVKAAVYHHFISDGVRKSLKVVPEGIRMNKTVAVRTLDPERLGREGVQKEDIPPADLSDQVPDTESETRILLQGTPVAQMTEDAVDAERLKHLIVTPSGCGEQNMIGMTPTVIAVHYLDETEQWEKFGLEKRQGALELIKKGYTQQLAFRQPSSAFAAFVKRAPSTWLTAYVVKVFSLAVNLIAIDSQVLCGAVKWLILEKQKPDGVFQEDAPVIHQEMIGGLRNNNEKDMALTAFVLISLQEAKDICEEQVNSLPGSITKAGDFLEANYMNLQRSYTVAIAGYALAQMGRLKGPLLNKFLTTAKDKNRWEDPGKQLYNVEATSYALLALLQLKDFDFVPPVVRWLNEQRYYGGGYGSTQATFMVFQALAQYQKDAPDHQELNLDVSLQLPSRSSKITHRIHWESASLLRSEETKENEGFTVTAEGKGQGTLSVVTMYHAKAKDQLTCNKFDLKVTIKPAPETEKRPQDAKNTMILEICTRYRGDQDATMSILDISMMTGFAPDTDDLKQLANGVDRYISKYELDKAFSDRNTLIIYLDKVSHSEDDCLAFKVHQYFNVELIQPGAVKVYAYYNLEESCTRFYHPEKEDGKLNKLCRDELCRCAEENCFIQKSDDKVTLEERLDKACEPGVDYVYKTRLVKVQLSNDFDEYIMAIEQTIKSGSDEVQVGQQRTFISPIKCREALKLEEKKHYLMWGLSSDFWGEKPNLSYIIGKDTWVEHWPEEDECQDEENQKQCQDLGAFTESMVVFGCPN
Binder,EC50 hC3 cleavage,EC50 of hC3 cleavage
B1,3.19 nM,
B2,,12.1 nM
B3,,25.9 nM
B4,,2.76 nM
B5,11.9 nM,
B6,,44.7 nM
B7,4.18 nM,
B8,63.8 nM,
B9,,2.84 nM
B10,,19.4 nM
B11,,24.4 nM
B12,24.2 nM,
B13,,6.84 nM
B14,,110 nM
B15,,14.1 nM
B16,,59.6 nM
B17,,78.1 nM
B18,,119 nM
B19,11.2 nM,
B20,,51.7 nM
B21,,6.33 nM
B22,,7.75 nM

Binder,EC50 hC3 cleavage,EC50 of hC3 cleavage
B23,,85.7 nM
B24,,24.1 nM
B25,,9.92 nM
B26,,9.74 nM
B27,,19.8 nM
B28,,35.4 nM
B29,,38 nM
B30,4.76 nM,
B31,29.1 nM,
B32,,22.6 nM
B33,,22 nM
B34,18.4 nM,
B35,46.4 nM,
B36,195 nM,
B37,,68.6 nM
B38,,108 nM
B39,32.3 nM,
B40,,259 nM
B41,34.1 nM,
B42,49.7 nM,
B43,,19.9 nM
